Measured values: patent US20110104152A1 (Genentech, published 2011)

Columns and labels:
[1] = molecular target: human FGFR1c polypeptide expressed in transfected rat L6 myoblasts (human, UniProt P11362 22-822); assay: cell-based or functional assay
[2] = molecular target: human FGFR4 polypeptide expressed in transfected rat L6 myoblasts (human, UniProt P22455 22-802); assay: cell-based or functional assay
[3] = molecular target: T1, FGFR4-Fc (recombinant polypeptide comprising a human FGFR4 extracellular domain fused to a human IgG1 Fc … (human, UniProt P22455 22-369)); assay: ELISA, FGFR-Fc captured by anti-human IgG-Fc antibody, 2 µg/mL heparin, no Klotho-beta
T1 construct: extracellular domain; Bought reagent; also called FGFR4 fused to Fc fragment; catalog no; 685-FR-050, R&D Systems; not shown: human IgG1 Fc fragment
T1 sequence (looked up): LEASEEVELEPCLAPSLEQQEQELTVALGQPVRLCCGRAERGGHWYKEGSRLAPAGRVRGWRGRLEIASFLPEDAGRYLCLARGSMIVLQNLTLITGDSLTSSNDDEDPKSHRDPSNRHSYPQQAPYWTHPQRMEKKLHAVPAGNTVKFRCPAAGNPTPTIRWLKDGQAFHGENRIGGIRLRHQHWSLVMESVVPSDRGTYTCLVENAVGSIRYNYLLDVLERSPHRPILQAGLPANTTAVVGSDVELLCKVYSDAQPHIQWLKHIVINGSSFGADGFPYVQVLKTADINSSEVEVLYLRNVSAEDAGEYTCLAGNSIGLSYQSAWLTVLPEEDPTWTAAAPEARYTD
Protocol: Monoclonal antibodies specific for human IgG-Fc fragment (Jackson ImmunoResearch, West Grove, Pa., USA) were immobilized in the wells of Maxisorp™ flat-bottom 96-well plates (Nunc, Thermo Fisher Scientific, Rochester, N.Y.) by overnight incubation with 100 μl per well of 2 μg/ml antibody solution. Each well was then incubated with either 1 μg/ml of FGFR4—Fc (a recombinant polypeptide comprising a human FGFR4 extracellular domain fused to a human IgG₁ Fc fragment; catalog no. 685-FR-050, R&D Systems, Inc., Minneapolis, Minn.) or 1 μg/ml FGFR1c-Fc (a recombinant polypeptide comprising a human FGFR1c extracellular domain fused to a human IgG₁ Fc fragment; catalog no. 658-FR-050, R&D Systems).
The surface-immobilized FGFR4-Fc or FGFR1c-Fc polypeptides were incubated for 1 hr with native human FGF19-Flag polypeptide with a C-terminal epitope tag (See FGF19-Flag in Table 10, SEQ ID NO:237) at concentrations of 1 μg/mL, 0.4 μg/mL, 0.16 μg/mL, 0.064 μg/mL, 0.0256 μg/mL, 0.004096 μg/mL or 0.0016384 μg/mL, each with 2 μg/mL heparin, to allow binding of the FGF19 polypeptide to the receptor domain. […]

human FGFR1c polypeptide expressed in transfected rat L6 myoblasts, sequence (P11362 22-822): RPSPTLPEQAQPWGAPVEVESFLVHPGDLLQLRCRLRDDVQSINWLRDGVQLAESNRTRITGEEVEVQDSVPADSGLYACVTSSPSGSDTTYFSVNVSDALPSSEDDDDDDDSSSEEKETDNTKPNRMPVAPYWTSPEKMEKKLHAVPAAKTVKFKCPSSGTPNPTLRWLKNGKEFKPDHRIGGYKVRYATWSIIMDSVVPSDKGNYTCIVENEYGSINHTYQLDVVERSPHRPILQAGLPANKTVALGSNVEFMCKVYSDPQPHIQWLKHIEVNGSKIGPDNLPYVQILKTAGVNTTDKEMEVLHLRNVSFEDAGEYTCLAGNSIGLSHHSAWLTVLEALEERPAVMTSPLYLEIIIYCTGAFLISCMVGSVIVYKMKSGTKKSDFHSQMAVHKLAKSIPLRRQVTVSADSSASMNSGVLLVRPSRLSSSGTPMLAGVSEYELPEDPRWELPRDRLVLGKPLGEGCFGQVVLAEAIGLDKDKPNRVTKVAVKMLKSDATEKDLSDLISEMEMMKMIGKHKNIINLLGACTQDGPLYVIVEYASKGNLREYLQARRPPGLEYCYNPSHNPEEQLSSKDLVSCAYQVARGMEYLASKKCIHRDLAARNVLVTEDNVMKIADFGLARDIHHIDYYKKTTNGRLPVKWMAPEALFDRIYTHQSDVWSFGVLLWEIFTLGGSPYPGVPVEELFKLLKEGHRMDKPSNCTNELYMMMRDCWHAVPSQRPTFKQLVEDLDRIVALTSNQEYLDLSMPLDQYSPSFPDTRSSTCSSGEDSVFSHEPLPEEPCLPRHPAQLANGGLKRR

B1: chimeric FGF19 polypeptide cFGF21/19-2/Flag (ligand)
chain: HPIPDSSPLLQFGGQVRQRYLYTSGPHGLSSCFLRIRADGVVDCARGQSAHSLLEIKAVALRTVAIKGVHSVRYLCMGADGKMQGLLQYSEEDCAFEEEIRPDGYNVYRSEKHRLPVSLSSAKQRQLYKNRGFLPLSHFLPMLPMVPEEPEDLRGHLESDMFSSPLETDSMDPFGLVTGLEAVRSPSFEKDYKDDDDK
notes: also called chimeric FGF19-Flag polypeptide; FGF19v
- EC50 of dose-dependent activation of luciferase (GAL4-Elk1 reporter), L6 cells with KLB and FGFR1c [1]: 0.0227 µg/mL
- EC50 of dose-dependent activation of luciferase (GAL4-Elk1 reporter), L6 cells with FGFR4 and KLB [2]: 0.269 µg/mL
- binding result [3]: no binding (tested: 1 µg/mL (highest concentration tested))
